According to patent US20140031247:

What was measured:
[1] = system: biotinylated recombinant Notch1 substrate N1-Sb1
[2] = system: N1-Sb1 substrate with P2 substitution C1752M
[3] = system: N1-Sb1 substrate with P2 substitution C1752V
[4] = system: N1-Sb1 substrate with P2 substitution C1752A

Sequence of biotinylated recombinant Notch1 substrate N1-Sb1 (chain, as listed by the source): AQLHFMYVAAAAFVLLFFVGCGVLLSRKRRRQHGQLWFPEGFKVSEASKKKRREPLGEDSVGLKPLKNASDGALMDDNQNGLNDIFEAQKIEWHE

γ-secretase of HeLa cell membrane
apparent Km [1]: the apparent Km of N1-Sb1 cleavage by γ-secretase is 0.15±0.03 µM

γ-secretase with E280A PS1 (membrane of N2a cells stably expressing E280A PS1)
rate of γ-secretase cleavage compared with WT substrate [2]: E280A (185.5±7.4%) PS1 | rate of γ-secretase cleavage compared with WT substrate [3]: had no effect on WT (left panel) and E280A PS1 (right panel) | rate of γ-secretase cleavage compared with WT substrate [4]: significantly reduced reactivity for all three forms of γ-secretase (20-30% remaining) | Km [1]: the Km values for N1-Sb1 cleavage by PS1 wild-type, M146L, and E280A FAD mutants are 70, 49, and 50 nM, respectively

γ-secretase with M146L PS1 (membrane of N2a cells stably expressing M146L PS1)
rate of γ-secretase cleavage compared with WT substrate [2]: significantly enhanced activity for M146L (166.4±6.1%) | rate of γ-secretase cleavage compared with WT substrate [3]: considerably increased reactivity for M146L PS1 γ-secretase (141.3±17.9%0 | rate of γ-secretase cleavage compared with WT substrate [4]: significantly reduced reactivity for all three forms of γ-secretase (20-30% remaining) | Km [1]: the Km values for N1-Sb1 cleavage by PS1 wild-type, M146L, and E280A FAD mutants are 70, 49, and 50 nM, respectively

γ-secretase with M146V PS1 (membrane of M146V PS1 knock-in mouse brain)
rate of γ-secretase cleavage compared with WT substrate [2]: enhanced activity for M146V knock-in PS1 (127.4±3.7%) | Km [1]: The Km values of WT and M146V PS1 are 60 and 48 nM, respectively

γ-secretase with wild type PS1 (membrane of knock-in wild type PS1 mouse brain)
rate of γ-secretase cleavage compared with WT substrate [2]: C1752M substrate also had no effect on WT PS1 (left panel) | Km [1]: The Km values of WT and M146V PS1 are 60 and 48 nM, respectively

γ-secretase with wild-type PS1 (membrane of N2a cells stably expressing WT PS1)
rate of γ-secretase cleavage compared with WT substrate [2]: C1752M substrate had no effect on WT (left panel) | rate of γ-secretase cleavage compared with WT substrate [3]: had no effect on WT (left panel) and E280A PS1 (right panel) | rate of γ-secretase cleavage compared with WT substrate [4]: significantly reduced reactivity for all three forms of γ-secretase (20-30% remaining) | Km [1]: the Km values for N1-Sb1 cleavage by PS1 wild-type, M146L, and E280A FAD mutants are 70, 49, and 50 nM, respectively
